Experiment [1] addresses T1, human PD-1 expressed on CHO-S cells (human, UniProt Q15116 25-288).
T1 construct: CHO-S cells transfected with pCMV3-C-FLAG vector (Sino) holding human PD-1 cDNA; also called cell surface human PD-1; hPD-1
The experiment is described as follows: cell-based ELISA on CHO-S cells expressing human PD-1. Here is the method:
To summarize the ELISA analysis, 10,000 CHO-S cells expressing either human PD-1 or mouse PD-1 were coated in a collagen-coated 96-well plate (Thermo scientific) overnight in an incubator at 37° C. The coated cells were fixed with 8% paraformaldehyde at room temperature for 15 minutes.
After washing, a secondary antibody was added and incubated overnight at 4° C. […] After washing, TMB substrate (abcam) was added, and the color reaction was stopped with STOP solution (abcam). Absorbance at 450/650 nm was measured using a microplate reader (ThermoFisher).
On the technique in general: ELISA stands for enzyme-linked immunosorbent assay.

The target of experiment [2] is T2, human PD-1 protein (human, UniProt Q15116 25-167, limits assumed).
T2 construct: also called human PD-1 antigen
T2 sequence (Q15116 25-167 limits assumed): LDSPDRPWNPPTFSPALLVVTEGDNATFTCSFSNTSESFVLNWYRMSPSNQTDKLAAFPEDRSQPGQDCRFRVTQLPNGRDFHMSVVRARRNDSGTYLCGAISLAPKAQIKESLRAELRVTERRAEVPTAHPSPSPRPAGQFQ
Briefly: SPR, Biacore 8K, antibody captured by anti-human IgG on CM5, human PD-1 as analyte. The protocol:
Anti-human IgG antibody was immobilized on a CM5 chip (Cytiva) via amine coupling. […] Human PD-1 and running buffer at a concentration of 0-100 nM (0, 6.25, 12.5, 25, 50, 100 nM) were flowed onto the sensor chip at a flow rate of 30 μl/min for an association phase of 120 s, which was followed by a dissociation phase of 900 s. The chip was regenerated with glycine at pH 1.5 after each experiment. Association and dissociation curves were drawn using Cytiva evaluation software, and kinetics and affinity values were determined.

The target in experiment [3] is T2, human PD-1 protein. Briefly: SPR, Biacore 8K, antibody captured on Protein A chip, human PD-1 as analyte, pH 7.4. A general note: SPR reads the build-up and loss of mass on a sensor chip optically.
Experiment [4] has as its target T2, human PD-1 protein. Briefly: SPR, Biacore 8K, antibody captured on Protein A chip, human PD-1 as analyte.
The target in experiment [5] is T1, human PD-1 expressed on CHO-S cells. The experiment is described as follows: cell-based ELISA on fixed CHO-S cells expressing human PD-1.
For experiment [6], the target named is T3, extracellular domain (ECD) PD-1 protein from mouse (mouse, UniProt Q02242 25-169).
T3 construct: extracellular domain; also called mouse PD-1 antigen
T3 sequence (looked up): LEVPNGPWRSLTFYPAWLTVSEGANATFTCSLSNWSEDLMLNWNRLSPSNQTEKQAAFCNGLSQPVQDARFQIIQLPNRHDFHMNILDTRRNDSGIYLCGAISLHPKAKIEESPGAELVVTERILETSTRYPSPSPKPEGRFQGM
The experiment is described as follows: protein-based ELISA, coated PD-1 ECD, antibody at 1 ug/ml. The protocol: (§1) To determine the cross-reactivity of the antibody to PD-1 antigens, protein-based ELISA was performed. To summarize the ELISA analysis, a 96-well plate (Thermo scientific) was coated with 10 ng of the extracellular domain (ECD) PD-1 proteins from human, mouse, rabbit, cynomolgus, and rat overnight at 4° C. […] After washing, a secondary antibody (anti-human IgG antibody) was added and incubated at 37° C. for 2 hours. After washing, TMB substrate (abcam) was added, and the color reaction was stopped with STOP solution (abcam). Absorbance at 450/650 nm was measured using a microplate reader (ThermoFisher).

The target in experiment [7] is T4, extracellular domain (ECD) PD-1 protein from human (human, UniProt Q15116 25-170).
T4 construct: the whole entry is named; also called human PD-1 antigen
T4 sequence (Q15116 25-170 limits assumed): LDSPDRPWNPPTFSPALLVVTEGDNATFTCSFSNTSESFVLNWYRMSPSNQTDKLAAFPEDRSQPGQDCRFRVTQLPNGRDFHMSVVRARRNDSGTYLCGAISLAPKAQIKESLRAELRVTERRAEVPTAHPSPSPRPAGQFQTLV
The description is as above. Here is the method:
as §1

Experiment [8] addresses T2, human PD-1 protein. Briefly: SPR, binding kinetics to human PD-1; parent run 1.
The target in experiment [9] is T2, human PD-1 protein. Briefly: SPR (Biacore 8K), ratio between the values at pH 7.4 and pH 6.0, human PD-1 as analyte. The protocol:
(§2) The binding kinetics of each antibody to human PD-1 were measured through SPR (Surface Plasma Resonance) analysis using Biacore 8K (Cytiva), and the antibodies' binding affinities to the antigen were compared to one another.
(§3) Seven concentrations ([…]) of human PD-1 were flowed onto the sensor chip at a flow rate of 30 μL/min for an association phase of 120 s, followed by dissociation for 1800 s. Capture, association, and dissociation were performed in HBS-EP+buffer at pH 6.0. The chip was regenerated with glycine at pH 1.5 after each experiment. Association and dissociation curves were drawn using Cytiva evaluation software, and kinetics and affinity values were determined.

The target of experiment [10] is T2, human PD-1 protein. The experiment is described as follows: SPR, Biacore 8K, antibody captured on Protein A chip, human PD-1 as analyte, HBS-EP+ at pH 6.0. The protocol: as §2, §3
In experiment [11] the target is T2, human PD-1 protein. Briefly: SPR, binding kinetics to human PD-1; parent run 2.
The target of experiment [12] is T2, human PD-1 protein. The experiment is described as follows: SPR, binding kinetics to human PD-1.
The target in experiment [13] is T2, human PD-1 protein. Briefly: SPR; ratio against the U299-WT parent.

By EC50 is commonly meant the midpoint of the concentration-response curve. In general, Kd refers to the concentration at which binding is half-saturated. In general, EC50 (read off the curve) refers to the midpoint of the concentration-response curve. One may read the koff as the rate constant with which the complex falls apart. For orientation: kon means a measure of how fast the partners come together.

T1 sequence (Q15116 25-288 limits assumed): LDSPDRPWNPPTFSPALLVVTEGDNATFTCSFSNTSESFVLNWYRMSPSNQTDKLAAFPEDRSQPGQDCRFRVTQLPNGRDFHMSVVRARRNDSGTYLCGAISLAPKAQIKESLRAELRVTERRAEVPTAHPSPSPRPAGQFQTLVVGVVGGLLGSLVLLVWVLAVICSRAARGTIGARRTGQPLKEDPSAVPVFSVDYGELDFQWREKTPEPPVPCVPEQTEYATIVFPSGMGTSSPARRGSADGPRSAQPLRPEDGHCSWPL

As for Keytruda (antibody), the 50% effective concentration (EC50) in [1] was 0.154 nM. Besides, the Kd in the experiment with human PD-1 protein [2] amounted to 6.33 nM; with human PD-1 protein [3], 6.6 nM; with human PD-1 protein [4] it was 7.06 nM. Besides, in [5], the EC50 (read off the curve) worked out at 0.05 µg/mL.

B1: humanized antibody 1G1-h68 (antibody, human IgG4, kappa, V domains shown)
VH: QVQLVQSGAEVKKPGASVKVSCKASGYTFTGYWMHWVRQAPGQGLEWIGMIHPNSDTTTYNEKFKNRVTMTRDTSISTAYMELSRLRSDDTAVYYCTGTDQAAWFAFWGQGTTVTVSS
VL: DIVMTQTPLSLSVTPGQPASISCRSSQNIVHSNGDTYLEWYLQKPGQSPQLLIYKVSKRFSGVPDRFSGSGSGTDFTLKISRVEAEDVGVYYCFQGSHVPWTFGGGTKVEIKR
notes: hIgG4 heavy chain, human kappa light chain
Turning to B1, the binding result in [6] and in experiment [7] was “binds” throughout.

B2: humanized antibody 1G1-h70 (antibody, V domains shown)
VH: QVQLVQSGAEVKKPGASVKVSCKASGYTFTGYWMHWVRQAPGQGLEWIGMIHPNSDTTTYNEKFKNRVTMTRDTSISTAYMELSRLRSDDTAVYYCAGTDQAAWFAFWGQGTTVTVSS
VL: DIVMTQTPLSLSVTPGQPASISCRSSQNIVHSQGDTYLEWYLQKPGQSPQLLIYKVSKRFSGVPDRFSGSGSGTDFTLKISRVEAEDVGVYYCFQGSHVPWTFGGGTKVEIKR
notes: hIgG4 heavy chain, human kappa light chain; also called 1G1-h70 parent antibody (WT); U299-WTI
B2 yielded a Kd with human PD-1 protein [3] of 5.4 nM. In the experiment with human PD-1 protein [8], the dissociation constant Kd came to 2.32 nM, the koff came to 0.000402 s⁻¹ and the kon came to 174000 M⁻¹ s⁻¹. In the experiment with human PD-1 protein [9], the “Ratio(PH 7.4 vs PH6) KD” value came to 5.8, the “Ratio(PH 7.4 vs PH6) ka” value was determined as 2.3 and the “Ratio(PH 7.4 vs PH6) kd” value was found to be 2.7. In the experiment with human PD-1 protein [10], this molecule gave a Kd of 0.9 nM. Moreover, in experiment [6], the binding result is on record as “binds”. Besides, in the experiment with human PD-1 protein [11], the Kd worked out at 2.17 nM, the koff was 0.000412 s⁻¹ and the kon was 190000 M⁻¹ s⁻¹.

B3: AHF16570 (antibody, V domains shown)
VH: QVQLVQSGAEVKKPGASVKVSCKASGYTFTGYWMHWVRQAPGQGLEWIGMIHPNSDTTIYNWKFKNRVTMTRDTSISTAYMELSRLRSDDTAVYYCAGTDQAAWAGFWGQGTTVTVSS
VL: DIVMTQTPLSLSVTPGQPASISCRSSQNIVRSQGDTYLEWYLQKPGQSPQLLIYKVSKRFSGVPDRFSGSGSGTDFTLKISRVEAEDVGVYYCFQGSHVPWTFGGGTKVEIK
For the molecule B3, in the experiment with human PD-1 protein [12], the Kd amounted to 0.2 nM, the koff stood at 3.29e-05 s⁻¹ and the association rate constant (kon) was determined as 164000 M⁻¹ s⁻¹. Further, in the experiment with human PD-1 protein [13], the “Ratio (kD)” value turned out to be 11.2 and the “Ratio (kd)” value is 12.4.

B4: AHF16569 (antibody, V domains shown)
VH: QVQLVQSGAEVKKPGASVKVSCKASGYTFTGYWMHWVRQAPGQGLEWIGMIHPNSDTTIYNWKFKNRVTMTRDTSISTAYMELSRLRSDDTAVYYCAGTDQEAWAAFWGQGTTVTVSS
VL: DIVMTQTPLSLSVTPGQPASISCRSSQNIVRSQGDTYLEWYLQKPGQSPQLLIYKVSKRFSGVPDRFSGSGSGTDFTLKISRVEAEDVGVYYCFQGSHVPWTFGGGTKVEIK
In the experiment with human PD-1 protein [12], B4 registered a Kd of 0.339 nM, a koff of 6.74e-05 s⁻¹ and a kon of 199000 M⁻¹ s⁻¹. Besides, in the experiment with human PD-1 protein [13], the “Ratio (kD)” value was found to be 6.64 and the “Ratio (kd)” value was determined as 6.04.

B5: AHF16568 (antibody, V domains shown)
VH: QVQLVQSGAEVKKPGASVKVSCKASGYTFTGYWMHWVRQAPGQGLEWIGMIHPNSDTTIYNWKFKNRVTMTRDTSISTAYMELSRLRSDDTAVYYCAGTDQEAWMGFWGQGTTVTVSS
VL: DIVMTQTPLSLSVTPGQPASISCRSSQNIVRSQGDTYLEWYLQKPGQSPQLLIYKVSKRFSGVPDRFSGSGSGTDFTLKISRVEAEDVGVYYCFQGSHVPWTFGGGTKVEIK
Take B5: in the experiment with human PD-1 protein [12], the Kd was 0.241 nM, the koff came to 3.52e-05 s⁻¹ and the kon is 146000 M⁻¹ s⁻¹. Further, in the experiment with human PD-1 protein [13], the “Ratio (kD)” value was 9.34 and the “Ratio (kd)” value came to 11.6.

B6: humanized antibody 1G1-h61 (antibody, human IgG4, kappa, V domains shown)
VH: QVQLVQSGAEVKKPGASVKVSCKASGYTFTGYWMHWVRQAPGQGLEWMGMIHPNSDTTTYNEKFKNRVTMTRDTSISTAYMELSRLRSDDTAVYYCAGTDQAAWFAFWGQGTTVTVSS
VL: DIVMTQTPLSLSVTPGQPASISCRSSQNIVHSNGDTYLEWYLQKPGQSPKLLIYKVSKRFSGVPDRFSGSGSGTDFTLKISRVEAEDVGVYYCFQGSHVPWTFGGGTKVEIKR
notes: as for B1
As for B6, the binding result in [6] and in experiment [7] was “binds” in each case.

B7: 2E5 antibody (antibody, V domains shown)
VH: QVQLVQSGAEVKKPGSSVKVSCKASGFTFTTYYISWVRQAPGQGLEYLGYINMGSGGTNYNEKFKGRVTITADKSTSTAYMELSSLRSEDTAVYYCAIIGYFDYWGQGTMVTVSS
VL: DVVMTQSPLSLPVTLGQPASISCRSSQSLLDSDGGTYLYWFQQRPGQSPRRLIYLVSTLGSGVPDRFSGSGSGTDFTLKISRVEAEDVGVYYCMQLTHWPYTFGQGTKLEIK
B7 came in with a Kd with human PD-1 protein [3] of 12.6 nM. Also, in the experiment with human PD-1 protein [9], the “Ratio(PH 7.4 vs PH6) KD” value is 2.8, the “Ratio(PH 7.4 vs PH6) ka” value came out at 3.4 and the “Ratio(PH 7.4 vs PH6) kd” value came to 0.8. The same molecule gave a Kd in the experiment with human PD-1 protein [10] of 4.5 nM.
